Reference: patent US8895303B2, “Method of cell culture and method of treatment comprising a vEPO protein variant” (Charite-Universitatsmedizin Berlin, priority 2006, dated 2014)

How the values were obtained:
[1] = test system: rat primary cortical neurons; assay: Oxygen glucose deprivation (OGD) neuroprotection assay, LDH release; format: cell-based; settings: for neuroprotection (reduction in LDH release): OGD 3 h 15 min (higher level of damage)
Method: Rat primary neuronal cultures were obtained from E16 to early E19 embryos of Wistar rats (Bundesinstitut für gesundheitlichen Verbraucherschutz and Veterinärmedizin, Berlin, Germany). Cre-expressing mouse neurons were obtained from E16 embryos of heterozygous transgenic mice expressing Cre-recombinase under the control of the tubulin α-1 promoter (provided by Dr. U. Schweitzer; Experimental Endocrinology, Charité). Murine and rat cultures were prepared according to a modified protocol from Brewer (1995) J Neurosci Res. 42: 674-83. Cerebral cortex was isolated after removal of meninges and rinsed twice in PBS (Biochrom, Berlin, Germany). After 15 min incubation in trypsin/EDTA (0.05/0.02% w/v in PBS) at 37° C., tissues were rinsed twice in N-Med (modified Eagle's medium from Gibco with 10% fetal calf serum, 100 U penicillin plus streptomycin from Biochrom, 2 mM L-glutamine, 100 IE insulin/I, 10 mM HEPES and 44 mM glucose) and dissociated carefully in a small volume of N-Med using a Pasteur pipette. […]
For OGD, the culture medium was washed out by rinsing once with PBS. […] After 24 h, lactate dehydrogenase (LDH) activity was measured in the supernatants as an indicator of cell death.
For LDH measurement 25 μl of medium was mixed with 100 μl fresh β-NADH solution (0.15 mg/ml in 1×LDH-buffer; Sigma, reduced form) in a 96 wells plate (Greiner). 25 μl of 22.7 mM pyruvate (Sigma) was added immediately before placing the plate into the Reader (Thermo Labsystems; MRX^TC Revelation). […] LDH-concentration was calculated proportionally to the LDH-standard (Greiner, system calibrator). […]
For pretreatment with rhEPO, wild type mEPO, wild type hEPO or EPO variants the medium was removed to an end volume of 200 μl and filled up with 200 μl fresh NBM+B27 containing equimolar amounts (corresponding to 200 U/l rhEpo) of EPO or EPO variants, respectively. […] Cell death was assessed 24 h after OGD by measurement of LDH release. […]

[2] = test system: bone marrow cells; assay: Erythroid colony formation assay (CFU-E); format: cell-based, mouse; settings: 150 U/l mEPO or rhEPO, comparable protein concentrations of variants; no additional cytokines; counted at DIV2
Method: Bone marrow cells were harvested from tibia and femur of male […] mice (8-11 weeks) and resuspended in α-medium (supplemented with 10% fetal calf serum GOLD, 1% penicillium/streptavidine and 1% L-glutamine). Cells were seeded in […] Petri dishes (225.000 cells/dish) containing 8 parts Metho Cult SF 3236 methyl cellulose (StemCell Technologie Inc), 1 part cells and 2 parts a-medium mixed with HEK-cell preconditioned medium containing the EPO derivates (150 U/l in the case of murine EPO). 150 U/l of rhEPO (Roche) was used as positive control. Plates were incubated at 37° C. in a humidified atmosphere containing 5% CO2 for 48 hours. For evaluation only reddish colonies containing at least 6 hemoglobinised cells were taken into account.
Metho Cult SF 3236 triggers the formation of colonies (CFU-M, CFU-G or CFU-E) only after addition of the appropriate cytokines. […] The small irregular reddish colonies disappear by day 3.
In this assay, the hematopoietic potential of the variants was tested and compared to wild type form of EPO as well as rhEPO. The following conditions were prepared for comparison: medium from HEK cells transfected with pZ/EG as negative control, medium from HEK cells transfected with pZ/EG cells plus 150U/l rhEPO (Roche) as a positive control, and medium from HEK cells transfected with either pZ/EG-EPO-IRES (150 U/l murine EPO), pZ/EG-Splice-IRES (variant S; mS) or pZ/EG-G3-IRES (variant G3; mG3). At DIV2 only reddish colonies were counted containing at least 6 hemoglobinised cells. The results of three independent experiments are depicted in FIG. 5.

B1: mEPO: wild type mouse erythropoietin expressed in HEK cells (protein, listed as Mus musculus)
chain: MGVPERPTLLLLLSLLLIPLGLPVLCAPPRLICDSRVLERYILEAKEAENVTMGCAEGPRLSENITVPDTKVNFYAWKRMEVEEQAIEVWQGLSLLSEAILQAQALLANSSQPPETLQLHIDKAISGLRSLTSLLRVLGAQKELMSPPDTTPPAPLRTLTVDTFCKLFRVYANFLRGKLKLYTGEVCRRGDR
[1]; OGD 1 h 40 min and 1 h 50 min
  protection rate (reduction in LDH release): no protection
[2]
  hematopoietic potential (formation of CFU-E): formation of cfu-e

B2: mG3: murine EPO variant, peptide sequence SEQ ID NO 16 (protein, listed as Mus musculus)
chain: MGVPERPTLLLLLSLLLIPLGLPVLCAPPRLICDSRVLERYILEAKEAENVTMGCAEGPRLSENITVPDTKVNFYAWKRMEVEEQAIEVWQGLSLLSEAILQAQALLANFLRGKLKLYTGEVCRRGDR
[1]
  neuroprotection (reduction in LDH release): ~60%
[2]
  hematopoietic potential (formation of CFU-E): lacked hematopoietic potential

B3: mS: murine EPO splice variant, peptide sequence SEQ ID NO 14 (protein, listed as Mus musculus)
chain: MGVPERPTLLLLLSLLLIPLGLPVLCAPPRLICDSRVLERYILEAKEAENVTMGCAEGPRLSENITVPDTKVNFYAWKRMEKELMSPPDTTPPAPLRTLTVDTFCKLFRVYANFLRGKLKLYTGEVCRRGDR
[1]
  neuroprotection (reduction in LDH release): ~60%
[2]
  hematopoietic potential (formation of CFU-E): lacked hematopoietic potential
